Test [1] addresses T1, 人PD-1蛋白(北京百普赛斯，货号PD1-H5221) (human, UniProt Q15116 25-167).
T1 construct: Bought recombinant protein coated on the ELISA plate; also called PD-1抗原
The experiment in a line: binding ELISA on coated PD-1 protein.

For test [2], the target named is PD-1 on Jurkat/PD-1细胞(Promega) (UniProt Q15116 25-288, limits assumed). The experiment in a line: cell-based or functional assay.

B1: 抗PD-1/PSCK9-2 (bispecific antibody, human IgG4 S228P, kappa)
heavy: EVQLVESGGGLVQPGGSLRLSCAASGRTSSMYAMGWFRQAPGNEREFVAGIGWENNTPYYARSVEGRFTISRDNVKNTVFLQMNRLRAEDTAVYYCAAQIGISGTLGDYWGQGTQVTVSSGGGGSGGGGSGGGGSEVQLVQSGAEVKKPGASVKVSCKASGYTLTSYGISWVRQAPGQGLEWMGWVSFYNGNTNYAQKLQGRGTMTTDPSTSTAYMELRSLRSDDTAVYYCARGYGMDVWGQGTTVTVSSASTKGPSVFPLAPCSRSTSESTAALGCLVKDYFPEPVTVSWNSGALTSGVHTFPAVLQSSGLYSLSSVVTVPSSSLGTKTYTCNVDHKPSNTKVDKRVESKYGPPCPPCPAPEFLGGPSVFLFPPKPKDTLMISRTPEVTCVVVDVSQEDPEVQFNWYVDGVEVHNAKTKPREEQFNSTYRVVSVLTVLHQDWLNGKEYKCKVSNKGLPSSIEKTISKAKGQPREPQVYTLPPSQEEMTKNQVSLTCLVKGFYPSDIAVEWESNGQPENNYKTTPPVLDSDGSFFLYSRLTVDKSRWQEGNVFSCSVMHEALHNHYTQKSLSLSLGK
light: ESALTQPASVSGSPGQSITISCTGTSSDVGGYNSVSWYQQHPGKAPKLMIYEVSNRPSGVSNRFSGSKSGNTASLTISGLQAEDEADYYCNSYTSTSMVFGGGTKLTVLRTVAAPSVFIFPPSDEQLKSGTASVVCLLNNFYPREAKVQWKVDNALQSGNSQESVTEQDSKDSTYSLSSTLTLSKADYEKHKVYACEVTHQGLSSPVTKSFNRGEC
notes: also called antiPD-1/PSCK9-2; 抗PD-1/PCSK9-2
Molecule B1 registered a 50% effective concentration (EC50) in test [1] of 0.0641 µg/mL. The “EC50, PD-1报告基因法” value in test [2] is 4 µg/mL.

B2: 抗PD-1/TGF-β-1 (bispecific antibody, human IgG4 S228P, kappa)
heavy: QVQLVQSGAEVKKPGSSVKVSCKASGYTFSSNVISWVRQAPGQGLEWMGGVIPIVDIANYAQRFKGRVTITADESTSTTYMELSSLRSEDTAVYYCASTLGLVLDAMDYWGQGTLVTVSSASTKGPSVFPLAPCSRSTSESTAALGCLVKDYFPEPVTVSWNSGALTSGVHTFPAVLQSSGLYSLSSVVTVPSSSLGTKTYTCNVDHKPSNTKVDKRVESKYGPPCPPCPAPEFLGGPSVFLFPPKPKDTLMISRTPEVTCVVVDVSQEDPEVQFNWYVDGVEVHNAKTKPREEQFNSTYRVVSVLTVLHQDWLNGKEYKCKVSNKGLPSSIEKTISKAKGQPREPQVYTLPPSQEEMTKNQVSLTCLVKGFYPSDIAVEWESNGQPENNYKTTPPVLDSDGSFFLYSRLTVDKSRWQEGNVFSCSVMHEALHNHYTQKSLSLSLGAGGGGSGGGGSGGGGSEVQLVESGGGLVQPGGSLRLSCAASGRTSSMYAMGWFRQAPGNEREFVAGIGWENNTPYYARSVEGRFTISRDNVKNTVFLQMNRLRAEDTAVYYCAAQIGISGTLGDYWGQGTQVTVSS
light: ETVLTQSPGTLSLSPGERATLSCRASQSLGSSYLAWYQQKPGQAPRLLIYGASSRAPGIPDRFSGSGSGTDFTLTISRLEPEDFAVYYCQQYADSPITFGQGTRLEIKRTVAAPSVFIFPPSDEQLKSGTASVVCLLNNFYPREAKVQWKVDNALQSGNSQESVTEQDSKDSTYSLSSTLTLSKADYEKHKVYACEVTHQGLSSPVTKSFNRGEC
notes: also called antiPD-1/TGF-β-1
For the molecule B2, a half-maximal effect in test [1] (EC50) was put at 0.17 µg/mL. Besides, in test [2], the “EC50, PD-1报告基因法” value stood at 1.7 µg/mL.

B3: 抗PD-1/TGF-β-2 (bispecific antibody, human IgG4 S228P, kappa)
heavy: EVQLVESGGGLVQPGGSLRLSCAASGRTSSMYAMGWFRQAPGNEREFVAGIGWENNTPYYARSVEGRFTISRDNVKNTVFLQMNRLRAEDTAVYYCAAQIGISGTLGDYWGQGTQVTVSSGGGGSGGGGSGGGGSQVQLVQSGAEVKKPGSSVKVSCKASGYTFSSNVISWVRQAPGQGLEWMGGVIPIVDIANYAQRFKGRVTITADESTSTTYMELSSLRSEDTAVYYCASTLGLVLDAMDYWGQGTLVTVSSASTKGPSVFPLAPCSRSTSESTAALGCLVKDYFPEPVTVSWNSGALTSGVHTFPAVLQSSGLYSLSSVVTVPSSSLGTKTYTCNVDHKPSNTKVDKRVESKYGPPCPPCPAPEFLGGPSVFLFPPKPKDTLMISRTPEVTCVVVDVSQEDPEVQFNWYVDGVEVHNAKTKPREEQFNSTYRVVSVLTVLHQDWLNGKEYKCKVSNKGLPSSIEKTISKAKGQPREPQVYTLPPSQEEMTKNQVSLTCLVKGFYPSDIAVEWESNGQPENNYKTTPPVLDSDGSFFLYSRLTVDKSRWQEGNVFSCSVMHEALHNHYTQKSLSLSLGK
light: B2 light
notes: also called antiPD-1/TGF-β-2
For the molecule B3, in test [1], the binding result is recorded as “binds”.

B4: 抗PD-1/TGF-β-3 (bispecific antibody, human IgG4 S228P, kappa)
heavy: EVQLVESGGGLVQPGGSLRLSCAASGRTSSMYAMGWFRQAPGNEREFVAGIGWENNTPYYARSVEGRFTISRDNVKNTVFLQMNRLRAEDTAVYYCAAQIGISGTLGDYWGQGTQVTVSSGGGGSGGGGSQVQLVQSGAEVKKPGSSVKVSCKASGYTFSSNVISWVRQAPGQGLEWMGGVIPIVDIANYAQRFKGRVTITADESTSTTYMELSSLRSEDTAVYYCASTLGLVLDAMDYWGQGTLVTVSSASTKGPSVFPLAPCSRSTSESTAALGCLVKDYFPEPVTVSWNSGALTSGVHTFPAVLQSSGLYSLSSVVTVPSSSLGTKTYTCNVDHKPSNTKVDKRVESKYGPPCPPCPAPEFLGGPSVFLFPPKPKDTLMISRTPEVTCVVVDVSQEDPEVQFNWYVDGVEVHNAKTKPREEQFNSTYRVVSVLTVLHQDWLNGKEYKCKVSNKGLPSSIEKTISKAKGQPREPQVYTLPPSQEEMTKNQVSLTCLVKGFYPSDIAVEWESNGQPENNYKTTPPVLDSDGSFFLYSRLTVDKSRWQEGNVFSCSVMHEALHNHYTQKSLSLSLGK
light: B2 light
notes: also called antiPD-1/TGF-β-3
With B4, the binding result in test [1] is reported as “binds”.

B5: 抗PD-1/IL-8-2 (bispecific antibody, human IgG4 S228P, kappa)
heavy: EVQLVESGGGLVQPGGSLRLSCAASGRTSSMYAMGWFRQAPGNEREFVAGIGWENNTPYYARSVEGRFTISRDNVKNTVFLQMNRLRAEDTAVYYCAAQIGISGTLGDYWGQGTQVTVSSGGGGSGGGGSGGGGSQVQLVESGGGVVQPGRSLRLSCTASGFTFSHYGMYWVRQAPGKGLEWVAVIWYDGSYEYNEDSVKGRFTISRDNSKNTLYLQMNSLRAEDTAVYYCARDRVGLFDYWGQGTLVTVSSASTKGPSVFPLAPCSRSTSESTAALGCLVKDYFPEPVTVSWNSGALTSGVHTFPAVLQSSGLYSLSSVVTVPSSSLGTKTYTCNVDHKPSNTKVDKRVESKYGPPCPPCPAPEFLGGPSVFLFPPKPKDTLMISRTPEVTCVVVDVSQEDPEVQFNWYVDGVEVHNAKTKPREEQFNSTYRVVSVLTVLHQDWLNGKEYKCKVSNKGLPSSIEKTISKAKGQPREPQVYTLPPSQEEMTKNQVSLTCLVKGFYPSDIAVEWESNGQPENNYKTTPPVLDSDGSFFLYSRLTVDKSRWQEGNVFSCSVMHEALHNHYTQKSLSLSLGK
light: EIVLTQSPGTLSLSPGERATLSCRASQSISSSYLAWYQQKPGQAPRLLIYGPSSRATGIPDRFSGSGSGTDFTLTISRLEPEDFAVYYCQQYAGSLTFGPGTKVDIKRTVAAPSVFIFPPSDEQLKSGTASVVCLLNNFYPREAKVQWKVDNALQSGNSQESVTEQDSKDSTYSLSSTLTLSKADYEKHKVYACEVTHQGLSSPVTKSFNRGEC
For B5, the “EC50, PD-1报告基因法” value in test [2] amounted to 1.3 µg/mL.

B6: 抗PD-1/IL-8-1 (bispecific antibody, human IgG4 S228P, kappa)
heavy: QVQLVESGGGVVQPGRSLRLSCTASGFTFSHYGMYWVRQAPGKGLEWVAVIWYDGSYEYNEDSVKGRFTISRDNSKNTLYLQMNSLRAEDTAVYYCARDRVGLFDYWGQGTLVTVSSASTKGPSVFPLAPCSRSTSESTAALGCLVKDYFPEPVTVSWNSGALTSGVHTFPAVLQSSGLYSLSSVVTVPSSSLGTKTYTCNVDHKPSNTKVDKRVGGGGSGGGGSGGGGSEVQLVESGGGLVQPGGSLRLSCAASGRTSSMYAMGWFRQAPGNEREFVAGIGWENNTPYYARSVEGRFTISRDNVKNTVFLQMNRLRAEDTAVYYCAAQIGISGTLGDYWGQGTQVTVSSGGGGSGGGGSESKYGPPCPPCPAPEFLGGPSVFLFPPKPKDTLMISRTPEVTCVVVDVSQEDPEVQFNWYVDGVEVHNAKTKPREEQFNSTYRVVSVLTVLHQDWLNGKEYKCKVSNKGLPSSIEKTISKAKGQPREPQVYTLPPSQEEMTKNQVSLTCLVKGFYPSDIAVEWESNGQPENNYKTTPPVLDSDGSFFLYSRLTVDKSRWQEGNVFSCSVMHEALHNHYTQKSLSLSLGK
light: B5 light
notes: also called antiPD-1/IL-8-1
With B6, the binding result in test [1] is “binds”.

Source of the values: patent CN115558029A (LILING BIOLOGICAL PHARMACEUTICAL SUZHOU CO LTD, dated 2023).
